Test results taken from the Human Domainome abundance scans (Beltran et al. 2025).
± gives the uncertainty stated by the source.

B1: Nuclear receptor subfamily 1 group D member 2, residues 103 to 171; numbered along this chain, Q14995 (parent)
chain: CKVCGDVASGFHYGVHACEGCKGFFRRSIQQNIQYKKCLKNENCSIMRMNRNRCQQCRFKKCLSVGMSR

Variants of: B1
Test: abundance fitness (aPCA) (normalised: wild type 0, dead -1); higher = more abundant; growth selection in yeast, the domain comes from the species named
Settings: Homo sapiens

Abundance fitness: each site, then its substitutions
N41: V -0.446 ± 0.13, W -0.664 ± 0.24, A -0.219 ± 0.085, S -0.022 ± 0.096, M -0.586 ± 0.17, E -0.063 ± 0.089, C -0.738 ± 0.19, H -0.638 ± 0.25, T -0.047 ± 0.12, Y -0.492 ± 0.35, L -0.348 ± 0.12, P -0.264 ± 0.13, G -0.036 ± 0.09, D -0.225 ± 0.24, F -0.717 ± 0.41, Q -0.285 ± 0.16
Q31: W -0.465 ± 0.12, G -0.152 ± 0.072, E 0.197 ± 0.1, Y -0.276 ± 0.18, S -0.207 ± 0.12, N -0.475 ± 0.37, K -0.391 ± 0.25, D -0.278 ± 0.18, C -0.551 ± 0.15, T -0.238 ± 0.11, A -0.51 ± 0.099, I -0.635 ± 0.29, F 0.04 ± 0.2, L -0.169 ± 0.11, V -0.623 ± 0.13, P -0.457 ± 0.15, R -0.289 ± 0.075, M -0.262 ± 0.15
C18: V -0.79 ± 0.31, R -0.751 ± 0.14, G -0.813 ± 0.14, A -0.515 ± 0.18, S -0.812 ± 0.28, K -0.829 ± 0.32, M -0.537 ± 0.42, Q -0.874 ± 0.22, W -0.752 ± 0.29, L -0.692 ± 0.17, I -0.355 ± 0.4, E -0.847 ± 0.3
K36: L -0.459 ± 0.17, I -0.509 ± 0.48, P -0.199 ± 0.16, Q -0.305 ± 0.27, T -0.292 ± 0.2, V -0.26 ± 0.12, M -0.267 ± 0.24, E 0.219 ± 0.35, A -0.172 ± 0.12, S 0.137 ± 0.18, D -0.439 ± 0.31, G 0.092 ± 0.11, W -0.33 ± 0.2
L39: H -0.167 ± 0.17, M 0.1 ± 0.14, F -0.57 ± 0.24, Y -0.02 ± 0.16, W -0.559 ± 0.18, N 0.018 ± 0.13, T -0.121 ± 0.16, E 0.262 ± 0.13, I 0.161 ± 0.2, G -0.163 ± 0.063, D 0.321 ± 0.12, S 0.165 ± 0.082, Q -0.068 ± 0.15, A 0.084 ± 0.075, K -0.128 ± 0.18, P -0.106 ± 0.11
K37: T -0.234 ± 0.12, V -0.387 ± 0.099, Y -0.631 ± 0.35, S 0.011 ± 0.07, W -0.225 ± 0.17, C -0.495 ± 0.18, D 0.255 ± 0.044, E -0.04 ± 0.1, M 0.279 ± 0.17, A 0.064 ± 0.081, L -0.473 ± 0.11, I -0.279 ± 0.14, N 0.375 ± 0.11, P 0.27 ± 0.081, R -0.391 ± 0.1, H -0.241 ± 0.18, Q -0.075 ± 0.12
S28: T 0.24 ± 0.37, K -0.801 ± 0.49, W -0.733 ± 0.39, M -0.291 ± 0.42, G -0.748 ± 0.26, C 0.179 ± 0.14, V -0.419 ± 0.21
N32: R -0.423 ± 0.068, F -0.408 ± 0.14, L -0.706 ± 0.099, H -0.566 ± 0.14, A -0.343 ± 0.077, T -0.414 ± 0.092, W -0.891 ± 0.12, V -0.672 ± 0.084, C -0.612 ± 0.2, K -0.401 ± 0.11, Y -0.776 ± 0.17, S -0.381 ± 0.072, D -0.199 ± 0.093, I -0.329 ± 0.12, Q 0.144 ± 0.12, E 0.176 ± 0.083, M -0.44 ± 0.14, G -0.074 ± 0.046
R27: H 0.305 ± 0.27, N 0.237 ± 0.32, K -0.275 ± 0.21, F -0.581 ± 0.33, L -0.154 ± 0.13, M 0.073 ± 0.19, D 0.126 ± 0.19, W 0.091 ± 0.23, G -0.433 ± 0.12, E 0.216 ± 0.25, V 0.094 ± 0.096, S -0.51 ± 0.23, T -0.034 ± 0.24
G20: D 0.531 ± 0.19, S 0.212 ± 0.27
N43: C -0.083 ± 0.093, G -0.011 ± 0.071, E 0.017 ± 0.086, A 0.01 ± 0.085, H -0.37 ± 0.14, F -0.361 ± 0.19, D -0.222 ± 0.16
V15: Y -0.492 ± 0.38, S -0.954 ± 0.18, Q -0.744 ± 0.2, L -0.3 ± 0.1, T -0.961 ± 0.47, M -0.753 ± 0.15, D -0.746 ± 0.33, I -0.327 ± 0.16, G -0.546 ± 0.08, P -0.67 ± 0.094, R -0.819 ± 0.1, C -0.623 ± 0.21, E -0.679 ± 0.17, N -0.954 ± 0.35
Q30: D 0.022 ± 0.16, I -0.553 ± 0.5, S -0.364 ± 0.21, A 0.04 ± 0.096, P -0.523 ± 0.32, F -0.634 ± 0.3, V -0.092 ± 0.098, K -0.195 ± 0.17, T 0.126 ± 0.17, M -0.521 ± 0.41, R -0.557 ± 0.16, L -0.023 ± 0.095, N -0.43 ± 0.49
C38: L -1.01 ± 0.22, W -0.521 ± 0.13, V -0.551 ± 0.11, P -0.682 ± 0.35, E -0.857 ± 0.27, A -0.74 ± 0.26, Q -0.803 ± 0.45, D -0.894 ± 0.31, F -0.864 ± 0.28, S -0.579 ± 0.075, G -0.836 ± 0.14, T -0.768 ± 0.26, Y -0.785 ± 0.44, R -0.842 ± 0.14
K40: W 0.227 ± 0.047, D 0.115 ± 0.09, F 0.09 ± 0.11, C -0.615 ± 0.19, L -0.042 ± 0.051, S 0.092 ± 0.056, T 0.1 ± 0.079, Q 0.206 ± 0.081, M -0.059 ± 0.11, H -0.12 ± 0.13, N 0.246 ± 0.32, G 0.202 ± 0.042, V -0.273 ± 0.057, A 0.106 ± 0.056, R -0.029 ± 0.048, P -0.532 ± 0.13, Y 0.26 ± 0.12
G23: D 0.195 ± 0.34, V -0.041 ± 0.47, R -0.087 ± 0.5
I29: K -0.98 ± 0.29, M -0.14 ± 0.12, E -0.675 ± 0.21, R -0.601 ± 0.11, T -0.282 ± 0.091, N -0.058 ± 0.28, G -0.821 ± 0.13, S -0.7 ± 0.067, C -0.388 ± 0.17, F -0.081 ± 0.18, W -0.412 ± 0.13, V -0.17 ± 0.075, A -0.723 ± 0.14, Q -0.339 ± 0.1, Y -0.813 ± 0.36, L -0.19 ± 0.066
F25: S -0.609 ± 0.16, V -0.785 ± 0.22, W -0.332 ± 0.23, R -0.646 ± 0.19, Q -0.797 ± 0.23, I -0.152 ± 0.18, D -0.696 ± 0.42, Y -0.481 ± 0.39, E -0.634 ± 0.48, P -0.836 ± 0.41, A -0.72 ± 0.2, G -0.86 ± 0.28, L -0.752 ± 0.19, N -0.647 ± 0.47
G14: W -0.878 ± 0.22, S -0.291 ± 0.11, T -0.828 ± 0.38
E19: P -0.465 ± 0.42, L -0.858 ± 0.32, W -0.325 ± 0.17, M -0.884 ± 0.43, R -0.058 ± 0.27, G -0.63 ± 0.19, D 0.114 ± 0.21, Q -0.699 ± 0.26, T -0.478 ± 0.28, Y -0.394 ± 0.36, S -0.583 ± 0.18, V -0.669 ± 0.37
E42: S -0.172 ± 0.076, W -0.642 ± 0.25, C -0.592 ± 0.26, G 0.13 ± 0.063, F -0.809 ± 0.29, R -0.639 ± 0.11, V -0.798 ± 0.14, Q -0.23 ± 0.19, L -0.847 ± 0.15, Y -0.674 ± 0.31, N -0.004 ± 0.12, H -0.231 ± 0.19, M -0.008 ± 0.15, K -0.109 ± 0.14, T -0.671 ± 0.19, D -0.025 ± 0.1
A17: M -0.89 ± 0.21, S -0.346 ± 0.1, E -0.805 ± 0.15, P -0.962 ± 0.3, W -0.702 ± 0.18, N -0.422 ± 0.43, Q -0.902 ± 0.32, V -0.222 ± 0.058, L -0.666 ± 0.14, R -0.887 ± 0.16, T -0.392 ± 0.14, C 0.092 ± 0.041
H16: P -0.085 ± 0.091, Y -0.096 ± 0.075, D 0.264 ± 0.098, G -0.412 ± 0.073, N -0.297 ± 0.19, F -0.062 ± 0.16, T -0.1 ± 0.12, V -0.008 ± 0.059, A -0.169 ± 0.055, M 0.123 ± 0.079, C -0.411 ± 0.12, R -0.162 ± 0.067, I -0.306 ± 0.15, L 0.098 ± 0.056, K -0.501 ± 0.15, E 0.219 ± 0.082
R26: V -0.383 ± 0.16, A 0.133 ± 0.058, Y -0.246 ± 0.24, H -0.359 ± 0.41, E -0.032 ± 0.15, M 0.319 ± 0.42, F -0.326 ± 0.43, K -0.349 ± 0.34, L -0.226 ± 0.14, N 0.135 ± 0.18, T 0.092 ± 0.17, G -0.092 ± 0.091, I 0.342 ± 0.22, W 0.408 ± 0.069, Q 0.214 ± 0.15
I33: R -0.531 ± 0.058, G -0.338 ± 0.053, P -0.672 ± 0.12, C -0.591 ± 0.097, H -0.493 ± 0.14, Y -0.181 ± 0.12, L -0.065 ± 0.049, V -0.213 ± 0.048, F -0.38 ± 0.082, M -0.35 ± 0.077, W -0.668 ± 0.12, E -0.424 ± 0.089, A -0.377 ± 0.058, Q -0.553 ± 0.11, S -0.527 ± 0.071, D -0.708 ± 0.088
F24: T -0.422 ± 0.21, N -0.908 ± 0.37, G -0.798 ± 0.17, S -0.661 ± 0.3, L -0.272 ± 0.16, A -1.09 ± 0.34, V -0.81 ± 0.15, P -0.52 ± 0.47, Q -0.664 ± 0.41, E -0.68 ± 0.23, W -0.723 ± 0.23, K -1.04 ± 0.46, R -0.924 ± 0.19, I -1.02 ± 0.42
